Source: paper PMC6677837, “A Novel Cell-Penetrating Antibody Fragment Inhibits the DNA Repair Protein RAD51” (Scientific Reports, 2019)

T1: Recombinant human RAD51 (residues 21-339, C-terminal Leu-Glu-His6) (human, UniProt Q06609 21-339)
T1 chain: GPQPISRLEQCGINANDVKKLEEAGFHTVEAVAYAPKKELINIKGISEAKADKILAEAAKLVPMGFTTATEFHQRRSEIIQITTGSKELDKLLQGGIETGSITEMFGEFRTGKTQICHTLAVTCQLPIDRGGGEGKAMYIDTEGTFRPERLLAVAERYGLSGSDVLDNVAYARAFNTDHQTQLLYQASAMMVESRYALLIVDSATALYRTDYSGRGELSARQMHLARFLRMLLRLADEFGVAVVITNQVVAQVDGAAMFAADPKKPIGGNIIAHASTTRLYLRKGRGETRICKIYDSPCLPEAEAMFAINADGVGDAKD

B1: oligo(dT)36 (ssDNA)
DNA: TTTTTTTTTTTTTTTTTTTTTTTTTTTTTTTTTTTT
B2: Fab-F2-iPTD (Fab, V domains shown)
VH: EVQLVESGGGLVQPGGSLRLSCAASGFTFSSYGMHWVRQAPGKGLEWVAVISYDGSNKYYADSVKGRFTISADTSKNTAYLQMNSLRAEDTAVYYCARTYSYASRGWYDYWGQGTLVTVSS
VL: DIQMTQSPSSLSASVGDRVTITCRASQGISNYLAWYQQKPGKAPKLLIYAASSLQSGVPSRFSGSRSGTDFTLTISSLQPEDFATYYCQQGTYLPLTFGQGTKVEIK
notes: as the heavy chain of m2; as the light chain of m2; also called cell-penetrating Fab-F2-iPTD; source: E. coli, pCW-Fab-F2-iPTD, purified
B3: Fab-F2 (Fab, V domains shown)
VH: EVQLVESGGGLVQPGGSLRLSCAASGFTFSSYGMHWVRQAPGKGLEWVAVISYDGSNKYYADSVKGRFTISADTSKNTAYLQMNSLRAEDTAVYYCARTYSYASRGWYDYWGQGTLVTVSS
VL: DIQMTQSPSSLSASVGDRVTITCRASQGISNYLAWYQQKPGKAPKLLIYAASSLQSGVPSRFSGSRSGTDFTLTISSLQPEDFATYYCQQGTYLPLTFGQGTKVEIK
notes: Human IgG1 synthetic Fab from phage Library S (randomised CDRL3 and CDRH3, canonical other CDRs); In the Western blots the Fab was labelled with IRDye 800CW; also called IRDye 800CW-labeled Fab-F2; source: also in small-scale E. coli lysate

Tests used:
RAD51 = RAD51 (Homo sapiens, UniProt Q06609 21-339); assay: BLI; no Fab-F2; 1:1 Langmuir global fit; BLI on streptavidin biosensors; 0.5 uM RAD51 for the inhibition assay; buffer, salt, pH and temperature not given in the material (RAD51 dialyzed into PBS); conditions: protein: recombinant; label: 5'-biotin; single strand
[1] = target: T2, Recombinant human RAD51 (residues 21-339, C-terminal Leu-Glu-His6) (Homo sapiens, UniProt Q06609); assay: BLI; Fab (about 0.5 nm) immobilised on Protein L biosensors, range of RAD51 concentrations in solution; 25 °C, PBS pH 7.4 with 0.1% Tween 20 and 10 mg/mL BSA; global fit, 1:1 Langmuir model, reference well subtracted; conditions: both partners purified
T2 construct: RAD51, Homo sapiens, residues 21-339, inserted between the NcoI and XhoI sites of pET28a; Cloning at the NcoI site may add a start methionine; also called purified RAD51; plasmid-expressed RAD51; source: E. coli Rosetta(DE3), pET28a-RAD51, purified (ammonium sulfate, DE52 anion exchange, HiTrap Ni-chelating column); also in E. coli whole cell lysate

[2] = target: T1, Recombinant human RAD51 (residues …); assay: BLI
[3] = target: T2, Recombinant human RAD51 (residues …); assay: cell-based or functional assay

Binder | Kd (RAD51) | Kd [1] | koff, fold lower than for Fab-F2 [1] | kon, fold lower than for Fab-F2 [1] | koff [2] | koff [1] | kon [1] | inhibition of RAD51 (500 nM, pre-incubated with various concentrations of Fab-F2) binding to immobilised 5'-biotinylated oligo(dT)36 ssDNA, by BLI; IC50 [3]
B1 | 27.6 ± 4.75 nM | – | – | – | – | – | – | –
B2 | – | 18.2 nM | ~2 fold | ~2 fold | 0.000658 s⁻¹ | – | – | –
B3 | – | 8.1 ± 0.21 nM | – | – | – | 0.000156 s⁻¹ | 19300 M⁻¹ s⁻¹ | < 125 nM
